Source: PMC13397619

B1: NLV2 TCR alpha chain (CDR3α only) (parent)
chain: AGPMKTSYDKVI

Variants of: B1
Test: T-Switch: Jurkat TCRβ−/− cells expressing a CDR3 saturation-mutagenesis library, stained with two peptide-HLA-A*02:01 tetramers (original and novel peptide) plus anti-CD3, FACS-sorted into four gates, gDNA sequenced
Conditions: tetramers 1 µg/mL, 30 min on ice, SP, DP and SW gates expanded about 10 days between rounds ('two to three rounds of selection' in the Methods), unresolved parent, parent is a CDR3 fragment, scale: fold enrichment, numbering: sequential-on-construct, sequence starts at 1
[1] = with both tetramers (double-negative gate, binds neither): HLA-A*02:01 with … and with …, gate DN: OPPOSITE: higher = more of the variant in the gate that binds neither peptide = LESS binding (or no expression; inferred). Fold enrichment of the CDR3 variant in one FACS gate of a two-tetram
[2] = with both tetramers (double-positive gate): HLA-A*02:01 with … and with …, gate DP: higher = more of the variant in the gate that binds both peptides. Fold enrichment of the CDR3 variant in one FACS gate of a two-tetramer stain. SP/DP/SW gates were expanded and re-sorted bef

Variant	enrichment [1]	enrichment [2]
[…] (CDR3 as printed); I12D derived by comparing it with the table's wild-type CDR3 AGPMKTSYDKVI	0.942	0
[…] (CDR3 as printed); T6H derived by comparing it with the table's wild-type CDR3 AGPMKTSYDKVI	1.22	0
[…] (CDR3 as printed); Y8Q derived by comparing it with the table's wild-type CDR3 AGPMKTSYDKVI	0.629	0
[…] (CDR3 as printed); K5N derived by comparing it with the table's wild-type CDR3 AGPMKTSYDKVI	1.12	0
[…] (CDR3 as printed); V11H derived by comparing it with the table's wild-type CDR3 AGPMKTSYDKVI	0.891	0
[…] (CDR3 as printed); M4I derived by comparing it with the table's wild-type CDR3 AGPMKTSYDKVI	0.318	0
[…] (CDR3 as printed); A1E derived by comparing it with the table's wild-type CDR3 AGPMKTSYDKVI	0.767	0
[…] (CDR3 as printed); A1Q derived by comparing it with the table's wild-type CDR3 AGPMKTSYDKVI	0.89	0
[…] (CDR3 as printed); I12Y derived by comparing it with the table's wild-type CDR3 AGPMKTSYDKVI	1.06	0
[…] (CDR3 as printed); A1G derived by comparing it with the table's wild-type CDR3 AGPMKTSYDKVI	0.876	0
[…] (CDR3 as printed); S7W derived by comparing it with the table's wild-type CDR3 AGPMKTSYDKVI	0.807	0
[…] (CDR3 as printed); P3S derived by comparing it with the table's wild-type CDR3 AGPMKTSYDKVI	1.18	0
[…] (CDR3 as printed); G2M derived by comparing it with the table's wild-type CDR3 AGPMKTSYDKVI	1.1	0
[…] (CDR3 as printed); P3D derived by comparing it with the table's wild-type CDR3 AGPMKTSYDKVI	1.14	0
[…] (CDR3 as printed); A1V derived by comparing it with the table's wild-type CDR3 AGPMKTSYDKVI	0.809	0
[…] (CDR3 as printed); T6K derived by comparing it with the table's wild-type CDR3 AGPMKTSYDKVI	1.04	0
[…] (CDR3 as printed); T6S derived by comparing it with the table's wild-type CDR3 AGPMKTSYDKVI	1.05	0
[…] (CDR3 as printed); M4R derived by comparing it with the table's wild-type CDR3 AGPMKTSYDKVI	0.913	0
[…] (CDR3 as printed); M4N derived by comparing it with the table's wild-type CDR3 AGPMKTSYDKVI	0.728	0
[…] (CDR3 as printed); K10R derived by comparing it with the table's wild-type CDR3 AGPMKTSYDKVI	0.909	0
[…] (CDR3 as printed); K5F derived by comparing it with the table's wild-type CDR3 AGPMKTSYDKVI	0.857	0
[…] (CDR3 as printed); T6E derived by comparing it with the table's wild-type CDR3 AGPMKTSYDKVI	1.78	0
[…] (CDR3 as printed); S7M derived by comparing it with the table's wild-type CDR3 AGPMKTSYDKVI	1.3	0
[…] (CDR3 as printed); V11E derived by comparing it with the table's wild-type CDR3 AGPMKTSYDKVI	1.34	0
[…] (CDR3 as printed); D9Q derived by comparing it with the table's wild-type CDR3 AGPMKTSYDKVI	0.673	0
[…] (CDR3 as printed); A1C derived by comparing it with the table's wild-type CDR3 AGPMKTSYDKVI	0.8	0
[…] (CDR3 as printed); S7Y derived by comparing it with the table's wild-type CDR3 AGPMKTSYDKVI	0.999	0
[…] (CDR3 as printed); M4V derived by comparing it with the table's wild-type CDR3 AGPMKTSYDKVI	0.322	0
[…] (CDR3 as printed); G2V derived by comparing it with the table's wild-type CDR3 AGPMKTSYDKVI	0.88	0
